Results from publication PMC6553639 (Science signaling, 2018).
No end group written: not given here. *: point of attachment. FITC = O=C1OC2(c3ccc(O)cc3Oc3cc(O)ccc32)c2ccc(NC(=S)*)cc21

T1: TRIB1(84–372) (human, UniProt Q96RU8 84-372)
T1 sequence (looked up): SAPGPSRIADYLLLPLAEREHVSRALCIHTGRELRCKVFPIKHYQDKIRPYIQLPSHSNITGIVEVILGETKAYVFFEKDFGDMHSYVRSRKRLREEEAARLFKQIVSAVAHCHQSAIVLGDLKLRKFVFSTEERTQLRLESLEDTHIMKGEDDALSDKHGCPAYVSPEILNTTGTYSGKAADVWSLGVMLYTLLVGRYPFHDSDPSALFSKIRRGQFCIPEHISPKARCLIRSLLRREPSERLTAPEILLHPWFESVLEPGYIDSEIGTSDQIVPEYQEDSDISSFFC

T2: GST-TRIB1(84–372) S240W (human, UniProt Q96RU8 84-372, S240W)
T2 sequence (looked up): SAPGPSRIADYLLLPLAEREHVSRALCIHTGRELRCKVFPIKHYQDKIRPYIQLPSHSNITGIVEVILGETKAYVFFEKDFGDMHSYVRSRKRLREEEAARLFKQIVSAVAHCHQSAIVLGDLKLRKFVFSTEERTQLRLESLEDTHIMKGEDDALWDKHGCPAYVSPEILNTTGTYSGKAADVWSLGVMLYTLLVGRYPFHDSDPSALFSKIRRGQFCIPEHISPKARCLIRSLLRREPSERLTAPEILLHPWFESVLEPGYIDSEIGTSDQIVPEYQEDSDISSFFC

T3: GST-TRIB1(84–372) wild type (human, UniProt Q96RU8 84-372)
T3 sequence (looked up): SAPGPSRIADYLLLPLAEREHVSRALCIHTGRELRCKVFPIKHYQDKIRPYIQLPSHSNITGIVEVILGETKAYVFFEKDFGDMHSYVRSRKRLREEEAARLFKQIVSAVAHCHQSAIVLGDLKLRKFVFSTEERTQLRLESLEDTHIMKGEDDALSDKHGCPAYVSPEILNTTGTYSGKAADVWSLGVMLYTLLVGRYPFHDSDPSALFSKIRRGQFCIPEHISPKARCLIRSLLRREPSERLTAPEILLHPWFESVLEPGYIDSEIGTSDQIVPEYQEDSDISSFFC


Columns and labels:
TRIB1(84–372) [1] = target: T1, TRIB1(84–372); experiment: differential scanning fluorimetry
GST-TRIB1(84–372) S240W = target: T2, GST-TRIB1(84–372) S240W; experiment: pull-down
[2] = target: T3, GST-TRIB1(84–372) wild type; experiment: pull-down
TRIB1(84–372) [3] = target: T1, TRIB1(84–372); experiment: ITC
[4] = target: COP1 WD40 domain (376–731) (UniProt Q8NHY2 376-731); experiment: fluorescence polarisation
COP1 WD40 domain (376–731), sequence (Q8NHY2 376-731): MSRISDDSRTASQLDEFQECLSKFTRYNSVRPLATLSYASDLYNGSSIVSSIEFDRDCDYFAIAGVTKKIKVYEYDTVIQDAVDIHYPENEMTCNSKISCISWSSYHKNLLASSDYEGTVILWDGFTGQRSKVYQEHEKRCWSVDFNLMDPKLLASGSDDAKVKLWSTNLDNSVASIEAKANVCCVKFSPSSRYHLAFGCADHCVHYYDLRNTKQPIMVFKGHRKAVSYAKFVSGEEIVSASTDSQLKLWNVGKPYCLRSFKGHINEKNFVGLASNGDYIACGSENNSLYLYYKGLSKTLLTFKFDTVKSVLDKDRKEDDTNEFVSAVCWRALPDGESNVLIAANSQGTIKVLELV

| binding result (TRIB1(84–372) [3]) | binding result [4] | Binder | further results |
| --- | --- | --- | --- |
| binds | – | PAMYDDESAIDFSAYIDSMAAVP (peptide, UniProt P49716 50-72, looked up) [C/EBPδ(50–72) fused to MBP] | – |
| binds | – | GDMCEHEASIDLSAYIESGEEQL (peptide, UniProt Q15744 31-53, looked up) [C/EBPε(31–53) fused to MBP] | – |
| – | binds | SEIGTSDQIVPEYQEDSDI (peptide, UniProt Q96RU8 349-367, looked up) [TRIB1 peptide (residues 349 to 367)] | – |

More lines, now with the values behind:

| Binder | binding result (TRIB1(84–372) [3]) | binding result [4] | further results |
| --- | --- | --- | --- |
| GGICEHETSIDISAYIDPAAFND (peptide, UniProt P49715 53-75, looked up) [C/EBPα degron peptide (53 to 75)] | – | – | binding result (TRIB1(84–372) [1]): binds |
| GGICEHETSIDISAYIDPAAFND (peptide, UniProt P49715 53-75, looked up) [His6MBP-C/EBPα(53–75)] | binds | – | binding result (GST-TRIB1(84–372) S240W): binds; binding result [2]: binds |
| {FITC}-SEIGTSDQIVPEYQEDSDI (peptide, UniProt Q96RU8 349-367, looked up) [FITC-TRIB1(349–367)] | – | binds | – |
